From US20100021473A1 (DOMANTIS, published 2010) come the findings set out here.

Experiment [1] has as its target T1, CD138 on cells (UniProt P18827 23-310).
T1 construct: whole, on cells; Endogenous CD138 on cell lines used in FACS; also called DOM12; syndecan-1
T1 sequence (looked up): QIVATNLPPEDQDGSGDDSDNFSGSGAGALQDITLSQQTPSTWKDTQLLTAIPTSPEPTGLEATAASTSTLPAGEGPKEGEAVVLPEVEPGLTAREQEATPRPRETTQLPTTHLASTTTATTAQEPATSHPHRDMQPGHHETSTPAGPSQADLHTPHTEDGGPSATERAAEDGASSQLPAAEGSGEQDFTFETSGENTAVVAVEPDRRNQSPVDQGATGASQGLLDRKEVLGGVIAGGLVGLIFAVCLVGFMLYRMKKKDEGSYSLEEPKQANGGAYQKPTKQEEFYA
The experiment in a line: FACS on HUVEC cells (CD38-/CD138+). As for the experimental part: (§1) All dAbs were analysed by FACS on antigen positive and negative cell lines using the following method.
(§2) The determination of cell binding by FACS was carried out as follows: cells were centrifuged at 250 g for 5 minutes and the growth medium was removed. The cells were resuspended in FACS incubation buffer at 4° C. at a density of 2×10⁶ cells/ml. The cells were blocked by incubating for 15 minutes at 4° C. in FACS incubation buffer. Fifty microliters of 2× stock of primary antibody (anti-CD38 FITC, anti-CD138 FITC or mIgG1 FITC conjugated isotype control (all BD Biosciences) was added; or dAb was added to cells in FACS incubation buffer and incubated for 30-60 minutes at 4° C. The cells were then washed once in FACS incubation buffer. One hundred microliters of secondary antibody (rabbit anti-Vk) was added to cells in FACS incubation buffer and incubated 30-60 minutes at 4° C. The cells were washed once in FACS incubation buffer. Then 100 ul of 1× tertiary antibody was added to the cells in FACS incubation buffer and incubated for 30-60 mins at 4° C. (for dAbs the tertiary antibody is anti-rabbit FITC (Sigma)). The cells were washed twice in FACS incubation buffer. The cell pellet was resuspend in 200 ul FACS incubation buffer+viable cell marker (BD Viaprobe). The cells were then analyzed by flow cytometry.

Experiment [2] addresses T2, CD38 immobilised on Biacore CM5 chip (UniProt P28907 43-300, limits assumed).
T2 construct: also called DOM11
The experiment in a line: SPR (Biacore), CD38 immobilised on CM5 chip. As for the experimental part: (§3) Anti-CD38, anti-CEA and anti-CD56 dAbs that were identified as FACS positive clones were in addition analysed by Biacore using the following procedure. The CM5 chip surface was activated by flushing 1:1 EDC/NHS (0.4M1-ethyl-3-(3-dimenthylaminopropyl)-carbodiimide in water; 0.1 M N-hydroxysuccinimide in water) at a flow rate of 5 uL/min for 10 minute contact time. CD38 was immobilised at 500 nM in Acetate buffer pH4 at 5 uL/min this was repeated until the RUs reached between 500 and 1000 (low density). CEA and CD56 were coupled in acetate buffer pH 4.5. Any excess reactive groups were deactivated by running 1M ethanolamine-HCl over the CM5 chip (again 5 uL/min for 7 mins). The affinities of the anti-CD38, anti-CEA and anti-CD56 dAbs were measured on the biacore as described above.
(Surface plasmon resonance follows binding to a sensor surface in real time, without labels.)

The target of experiment [3] is T2, CD38 immobilised on Biacore CM5 chip. The experiment in a line: Biacore, CD38 immobilised; lower end of the printed range 330-500 nM (Table 8, affinity maturation experiment).
For experiment [4] the target is unchanged. The experiment in a line: Biacore, CD38 immobilised; upper end of the printed range 330-500 nM (Table 8, affinity maturation experiment).
The next experiment concerns the target T3, CD38 on cells (UniProt P28907 1-300).
T3 construct: whole, on cells; Endogenous CD38 on cell lines used in FACS or microscopy; also called DOM11; T10
Briefly: FACS on RPMI cells (CD38+/138+). As for the experimental part: as §1, §2

Experiment [5] concerns the target T2, CD38 immobilised on Biacore CM5 chip. Briefly: SPR (Biacore) co-injection on immobilised CD38, dAbs at 500 nM. How it is done: as §3
Epitope mapping was performed to determine whether anti-CD38 dAbs bound to different epitopes on CD38. The assay was performed on BIAcore as described above using a chip coated at medium density (RUs of ˜2000). CD38 was coated on to a CM5 chip at medium density as described above. Using the co-inject function, the first anti-CD38 dAbs was injected at a concentration of 500 nM. Both the first and second anti-CD38 dabs were the co-injected at the same concentration (500 nM). As both dAbs bind different epitopes, the RUs during the second injection increase beyond the level of binding of the first dAb.

The target of experiment [6] is T1, CD138 on cells. Briefly: FACS on RPMI cells (CD38+/CD138+), dAb at 500 nM. How it is done: as §1, §2
Experiment [7] concerns the target T4, CD38 and CD138 co-expressed on cells (CD38+/CD138+ double positive cells) (UniProt P28907 1-300; P18827 23-310).
T4 construct: whole, on cells; Two separate membrane proteins on the same cell, not a complex; also called RPMI8226; OPM2
Briefly: FACS cell binding titration on OPM2 cells (CD38+/CD138+), arithmetic mean fluorescence against log conc in nm.

B1: DOM11-3 (other)
chain: DIQMTQSPSSLSASVGDRVTITCRASQNIDSRLSWYQQKPGKAPKLLIYRTSVLQSGVPSRFSGSGSGTDFTLTISSLQPEDFATYYCQQWDMFPLTFGQGTKVEVK
notes: Anti-CD38 domain antibody (dAb) monomer; also called DOM11-3A
Take B1: in the experiment with CD138 on cells [1], the binding result is “no binding”. Further, the values for the equilibrium dissociation constant (Kd) in experiment [2], in experiment [3] and in experiment [4] were 250 nM, 330 to 500 nM and 330 to 500 nM, respectively.

B2: DOM11-23 (other)
chain: DIQMTQSPSSLSASVGDRVTITCRASQSINVRLIWYQQKPGKDPKLLIYSSSHLQSGVPSRFSGSGSGTDFTLTISSLQPEDFATYYCQQYHYTPFTFGQGTKVEIKR
notes: Anti-CD38 dAb monomer
For B2, the binding result (in the experiment with CD38 on cells; in experiment [5]) was “binds” each time.

B3: DOM12-45 (other)
chain: DIQMTQSPSSLSASVGDRVTITCRASQDIGDRLRWYQQKPGKAPKLLIYHGSRLESGVPSRFSGSRSGTDFTLTISSLQPEDFATYYCQQQWFRPYTFGQGTKVEIKR
notes: Anti-CD138 dAb monomer
As to B3, the binding result in the experiment with CD138 on cells [6] is “binds”.

B4: DOM11-3-15/DOM12-45-1 (bispecific antibody)
chain: DIQMTQSPSSLSASVGDRVTITCRASQNIDSRLSWYQQKPGKAPKLLIYRASVLQSGVPSRFSGTGSGTDFTLTISSLQPEDFATYYCQQWDMFPLSFGQGTKVEIKRSSGGGGSGGGGSGGGGSGGGGSGGGGSTDIQMTQSPSSLSASVGDRVTITCRASQDIGDRLRWYQQNPGKAPKLLIYHGSRLESGVPSRFSGNRSGTDFTLTISSLQPEDFATYYCQQQWFRPYTFGQGTKVEIKR
For B4, the EC50 (read off the curve) in experiment [7] amounted to 100 nM.

One may read the Kd as the constant that tells how readily two partners part at equilibrium. The EC50 (read off the curve) is the concentration needed to bring the measured effect to its halfway point. Lower therefore signals higher potency in that assay.
